± gives the standard deviation.
Assay: protein stability index of a GFP-peptide fusion (GPS, HEK-293T) (PSI 1-6); higher = more stable
Details: c terminus: a fixed tail appended
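Also: 24-mer peptide tiles fused after GFP, lentivirally expressed, FACS-sorted into six equal bins by GFP/DsRed ratio, decoded by Illumina sequencing, PSI is the read-weighted mean bin number.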

Sequence: GHGMTPLKVAAESCKADVVELLLS [FEM1B]
- protein stability index (treatment: DMSO): 2.29 ± 0.21
- protein stability index (treatment: MLN4924 1 uM, 8 h): 2.47 ± 0.34

Sequence: ALEFQPQLVLVAAGFDALQGDPKG [HDAC6]
- protein stability index (treatment: DMSO): 2.86 ± 0.28
- protein stability index (treatment: MLN4924 1 uM, 8 h): 3.11 ± 0.47

Sequence: METFDPTELPELLKLYYRRLFPYS [PRIM1]
- protein stability index (treatment: DMSO): 2.43 ± 0.51
- protein stability index (treatment: MLN4924 1 uM, 8 h): 2.38 ± 0.35

Sequence: FQFASIDVAGNLDYKALSYVITHG [MYL5]
- protein stability index (treatment: DMSO): 2.51 ± 0.47
- protein stability index (treatment: MLN4924 1 uM, 8 h): 2.29 ± 0.31

Sequence: FFIRTSDSFDKFDFCEPSFVTGNC [PCMTD2]
- protein stability index (treatment: DMSO): 2.52 ± 0.33
- protein stability index (treatment: MLN4924 1 uM, 8 h): 2.42 ± 0.26

Sequence: AIMCVSCICWSPFLVTMANIGING [PTGFR]
- protein stability index (treatment: DMSO): 3.42 ± 0.095
- protein stability index (treatment: MLN4924 1 uM, 8 h): 3.71 ± 0.45

Sequence: HLGCAVYQDMIYAVGGRDDTTELS [KLHL20]
- protein stability index (treatment: DMSO): 3.39 ± 0.14
- protein stability index (treatment: MLN4924 1 uM, 8 h): 3.38 ± 0.17

Sequence: RYSSDTTPLLNGSSQDRMFETMAI [GOSR1]
- protein stability index (treatment: DMSO): 3.29 ± 0.77
- protein stability index (treatment: MLN4924 1 uM, 8 h): 3.27 ± 0.24

Sequence: CMDQERLRRESTSQKEMDKAETKT [FCHO1]
- protein stability index (treatment: DMSO): 5.15 ± 0.65
- protein stability index (treatment: MLN4924 1 uM, 8 h): 5.21 ± 0.14

Sequence: GRPIKPPKKDLEDGEVPQHAGKKG [BRD3]
- protein stability index (treatment: DMSO): 5.41 ± 0.37
- protein stability index (treatment: MLN4924 1 uM, 8 h): 5.55 ± 0.061

Sequence: GVIVANMTEWKHQRITKQLEKWMQ [GLT8D2]
- protein stability index (treatment: DMSO): 2.18 ± 0.085
- protein stability index (treatment: MLN4924 1 uM, 8 h): 2.4 ± 0.18

Sequence: VEPPGPGDTVVQGDLQETTVVTGL [PBXIP1]
- protein stability index (treatment: DMSO): 5.31 ± 0.4
- protein stability index (treatment: MLN4924 1 uM, 8 h): 5.15 ± 0.46

Sequence: NIHENKRTGSLFKIWLVVPSLLEL [KLHDC10]
- protein stability index (treatment: DMSO): 3.16 ± 0.49
- protein stability index (treatment: MLN4924 1 uM, 8 h): 3.15 ± 0.42

Sequence: SSSSGRLSEPDPSHTLEERVVHWY [SMOC2]
- protein stability index (treatment: DMSO): 3.14 ± 0.38
- protein stability index (treatment: MLN4924 1 uM, 8 h): 3.1 ± 0.22

Sequence: FLLCARSLLRGFLLQNEFVGFMWR [MCOLN1]
- protein stability index (treatment: DMSO): 2.55 ± 0.34
- protein stability index (treatment: MLN4924 1 uM, 8 h): 2.39 ± 0.79

Sequence: FLSLHRAHLGEEAHKCLECGKCFS [ZNF263]
- protein stability index (treatment: DMSO): 3.06 ± 0.28
- protein stability index (treatment: MLN4924 1 uM, 8 h): 3.44 ± 0.37

Sequence: LESTLAETEARYSSQLAQMQCLIS [KRT36]
- protein stability index (treatment: DMSO): 3.08 ± 0.17
- protein stability index (treatment: MLN4924 1 uM, 8 h): 3.18 ± 0.32

Sequence: CSQGQQLATFSSDWEIQEDSRLMC [CCDC3]
- protein stability index (treatment: DMSO): 3.16 ± 0.073
- protein stability index (treatment: MLN4924 1 uM, 8 h): 3.03 ± 0.55

Sequence: LDQLDESLRDKVLQLQKGSDTEAQ [INTS3]
- protein stability index (treatment: DMSO): 5.46 ± 0.12
- protein stability index (treatment: MLN4924 1 uM, 8 h): 5.31 ± 0.21

Sequence: SGAVGARRFLLCLYLVGFLDLFGV [MFSD9]
- protein stability index (treatment: DMSO): 2.99 ± 0.54
- protein stability index (treatment: MLN4924 1 uM, 8 h): 2.84 ± 0.37

Sequence: IKGKSCRTITFEQFQEALEELAKK [TPPP]
- protein stability index (treatment: DMSO): 2.53 ± 0.26
- protein stability index (treatment: MLN4924 1 uM, 8 h): 2.62 ± 0.36

Sequence: SNWFVWVTQMNHIPMHIDHDRNMD [FADS1]
- protein stability index (treatment: DMSO): 2.09 ± 0.45
- protein stability index (treatment: MLN4924 1 uM, 8 h): 2.19 ± 0.13

Sequence: GAREEDLDAVEAQIGCKLPDDYRC [FBXO3]
- protein stability index (treatment: DMSO): 5.25 ± 0.073
- protein stability index (treatment: MLN4924 1 uM, 8 h): 5.15 ± 0.12

Sequence: YRQVPGSDPARYEFLWGPRAHAEI [MAGEA10]
- protein stability index (treatment: DMSO): 2.73 ± 0.24
- protein stability index (treatment: MLN4924 1 uM, 8 h): 2.91 ± 0.26

Sequence: EEIKFYELGEEAMEKFREDEGFIK [KCNA1]
- protein stability index (treatment: DMSO): 4.71 ± 0.36
- protein stability index (treatment: MLN4924 1 uM, 8 h): 4.84 ± 0.14

Sequence: QAIIESCSRQFPEFQERARKRIRT [NOL4L]
- protein stability index (treatment: DMSO): 3.69 ± 0.27
- protein stability index (treatment: MLN4924 1 uM, 8 h): 4.09 ± 0.21

Sequence: VIESFTELSRIVLMRHGMEKIWRP [RAB40C]
- protein stability index (treatment: DMSO): 3.11 ± 1
- protein stability index (treatment: MLN4924 1 uM, 8 h): 2.6 ± 0.59

Sequence: YLNFIRGVVDSEDLPLNISREMLQ [HSP90AB1]
- protein stability index (treatment: DMSO): 2.69 ± 0.12
- protein stability index (treatment: MLN4924 1 uM, 8 h): 3.09 ± 0.47

Sequence: VVLLFETALLSSGFSLEDPQTHSN [HSP90AB1]
- protein stability index (treatment: MLN4924 1 uM, 8 h): 2.83 ± 0.84

Sequence: QGGGNGQQQQAMSFAILRIIRLVR [KCNA4]
- protein stability index (treatment: DMSO): 2.46 ± 0.28
- protein stability index (treatment: MLN4924 1 uM, 8 h): 2.67 ± 0.24

Sequence: WDSFSAWLHCVCVVGFDLELGQAV [DENND6A]
- protein stability index (treatment: DMSO): 3.04 ± 0.34
- protein stability index (treatment: MLN4924 1 uM, 8 h): 3.27 ± 0.68

Sequence: NIHMNFTHICRSHNSINQSLDESV [SLC2A12]
- protein stability index (treatment: DMSO): 2.56 ± 0.25
- protein stability index (treatment: MLN4924 1 uM, 8 h): 2.54 ± 0.23

Sequence: GERPYKCSECGESFSRSSRLMSHQ [ZNF263]
- protein stability index (treatment: DMSO): 3.25 ± 0.51
- protein stability index (treatment: MLN4924 1 uM, 8 h): 3.53 ± 0.83

Sequence: LKSMDKNGTMTIDWNEWRDYHLLH [SLC25A25]
- protein stability index (treatment: DMSO): 2.27 ± 0.05
- protein stability index (treatment: MLN4924 1 uM, 8 h): 2.19 ± 0.28

Sequence: ALATLRVLRGLARPEHPPPAPTGQ [TMEM175]
- protein stability index (treatment: DMSO): 3.09 ± 0.22
- protein stability index (treatment: MLN4924 1 uM, 8 h): 3.09 ± 0.39

Sequence: KQRPTKLKSLIRLVKHWYQNCKKK [OAS1]
- protein stability index (treatment: DMSO): 3.44 ± 0.45
- protein stability index (treatment: MLN4924 1 uM, 8 h): 3.08 ± 0.42

Sequence: NQAGFTLHSAIYAARPDVKCVVHI [ADD1]
- protein stability index (treatment: DMSO): 3.1 ± 0.42
- protein stability index (treatment: MLN4924 1 uM, 8 h): 3.15 ± 0.62

Sequence: GGFQMHYEKTPFDQLAFIEELFSL [EID1]
- protein stability index (treatment: DMSO): 2.12 ± 0.9

Sequence: FLVVREPPRGAVERHSDLPPLNPT [SPNS1]
- protein stability index (treatment: DMSO): 2.85 ± 0.39
- protein stability index (treatment: MLN4924 1 uM, 8 h): 3.09 ± 0.34

Sequence: SQFLKLKTSVEKANAQIQILTRSW [CD207]
- protein stability index (treatment: DMSO): 2.19 ± 0.59
- protein stability index (treatment: MLN4924 1 uM, 8 h): 2.09 ± 0.29

Sequence: EMHTSRDHSSQSEEEVVEGEKEVE [BNIP3L]
- protein stability index (treatment: DMSO): 5.682 ± 0.045
- protein stability index (treatment: MLN4924 1 uM, 8 h): 5.59 ± 0.16

Sequence: ASKGCQLGKTEQGFENMDFFTLDL [TRIM63]
- protein stability index (treatment: DMSO): 3.22 ± 0.19
- protein stability index (treatment: MLN4924 1 uM, 8 h): 3.22 ± 0.31

Sequence: GRSFREEQCVSFNSHVYNGRTHQW [ADAMTSL2]
- protein stability index (treatment: DMSO): 3.05 ± 0.56
- protein stability index (treatment: MLN4924 1 uM, 8 h): 3.15 ± 0.87

Sequence: KVFIPSLFLSHVLALGLGIYIGKR [BNIP3L]
- protein stability index (treatment: DMSO): 2.34 ± 0.89
- protein stability index (treatment: MLN4924 1 uM, 8 h): 2.3 ± 0.6

Sequence: AQLQDFVRAKGSQSGRHLQTHSNT [STX5]
- protein stability index (treatment: DMSO): 4.13 ± 0.08
- protein stability index (treatment: MLN4924 1 uM, 8 h): 4.24 ± 0.15

Source: the supplement of paper PMC10567573
